Reference: article PMC2838905

Target: Dictyostelium myosin II (bipolar filaments) (Dictyostelium discoideum) (UniProt P08799)

B1: GST-B-Δ-WD, MHCK-B truncation lacking only the WD-repeat domain (amino acids 1-450) (domain or fragment)
chain: MIFKVWFSYEDEEVELSELTNDTTVSAIRKILHEGKIFRFPYGTSQTDLQIGKMLPSGSGGGATADSKFEKFKARNTLADIQYKVGDTLYVRVKKSKPTNDSLLPTLNIAFLDGSERAIKWEYDPYTTTAQWTCTATLVKVEPVPFAEGAFRKAYHTLDLSKSGASGRYVSKIGKKPTPRPSYFEDVKMQMIAKKWADKYNSFKPPKKIEFLQSCVLEFVDRTSSDLICGAEPYVEGQYRKYNNNSGFVSNDERNTPQSFSHFTYEHSNHQLLIIDIQGVGDHYTDPQIHTYDGVGFGIGNLGQKGFEKFLDTHKCNAICQYLNLQSINPKSEKSDCGTVPRPDLIFPDTSERDNNNNNNNNNNNNNNNNNNNSNNNNNNNSSISKSLVEISSGSKERNDRDSPSRQLFVSNDGNTLNTNKERSKSKSIDLEKPEILINNKKKESINLET
- phosphorylation of MHC in a kinase assay (50 nM kinase, 1.0 μM myosin II), against the full-length kinase (% of the full-length kinase): 30
